The results in this text go back to article PMC5889621 (Proceedings of the National Academy of Sciences of the …, 2018).

Series [1] addresses T1, LMAN1/ERGIC53 (endogenous) (human (endogenous in 293A)), P49257.
T1 chain: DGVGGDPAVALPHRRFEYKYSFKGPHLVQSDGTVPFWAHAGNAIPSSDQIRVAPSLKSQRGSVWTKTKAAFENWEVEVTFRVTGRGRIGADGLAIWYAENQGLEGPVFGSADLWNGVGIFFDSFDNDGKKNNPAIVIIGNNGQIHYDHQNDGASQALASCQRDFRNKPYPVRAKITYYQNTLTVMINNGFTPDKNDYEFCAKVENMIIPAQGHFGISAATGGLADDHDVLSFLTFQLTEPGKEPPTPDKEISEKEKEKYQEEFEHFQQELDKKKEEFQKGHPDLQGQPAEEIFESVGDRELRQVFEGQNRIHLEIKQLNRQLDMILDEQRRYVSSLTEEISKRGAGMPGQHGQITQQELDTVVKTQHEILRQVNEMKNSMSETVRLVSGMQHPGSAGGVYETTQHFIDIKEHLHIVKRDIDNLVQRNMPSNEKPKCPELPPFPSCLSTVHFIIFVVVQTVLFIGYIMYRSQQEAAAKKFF
Put plainly: SDS/PAGE without reducing agent and immunoblot. The note with it: remark: other sources report otherwise.

Series [2] deals with the molecule itself. Put plainly: SDS/PAGE without reducing agent and immunoblot. (In western blotting, separated proteins are transferred to a membrane and probed.)

Positions count from the first letter of the chain named. Numbers in names are those of the source. Where “and” joins values, the source holds several entries; their conditions need not be identical. Equal values may be shown once.

B1: LMAN1/ERGIC53 (endogenous), P49257 31-510 (natural protein)
chain: T1 chain
For orientation: stoichiometry N means a count of units in the complex or per binding partner. For B1, the stoichiometry N in series [1] is 2 and 6.

B2: Myc-LMAN1 C466A C475A double mutant (natural protein, UniProt P49257 31-510, looked up)
chain: T1 chain with C436A, C445A
With B2, the “stoichiometry N” value in series [2] amounted to 2.

B3: Myc-LMAN1 C466A (natural protein, UniProt P49257 31-510, looked up)
chain: T1 chain with C436A
As to B3, in series [2], the “stoichiometry N” value was determined as 2.

B4: Myc-LMAN1 C475A (natural protein, UniProt P49257 31-510, looked up)
chain: T1 chain with C445A
As to B4, the “stoichiometry N” value in series [2] was found to be 2.
